How the values were obtained:
[1] = target: T1, RSV prefusion F (preF), subtype B (respiratory syncytial virus subtype B); test: BLI, IgG
T1 construct: also called Prefusion subtype B

[2] = target: T2, RSV postfusion F (postF), subtype A (respiratory syncytial virus subtype A, UniProt P03420 26-513); test: BLI
T2 construct: also called Postfusion subtype A; F deltaFP

Binder	Kd [1] [nM]	binding result [2]
ADI-24811 (antibody, V domains shown, full-length IgG) VH: QVQLVQSGAEVKKPGASVKVSCKASGYTFTSYDINWVRQATGQGLEWMGWMNPNSGNTGYAQKFQGRVTMTRNTSISTAYMELSSLRSEDTAVYYCARGLPGQWLEYYFDYWGQGTLVTVSS VL: SYVLTQPPSVSVAPGKTARITCGGNNIGSKSVHWYQQKPGQAPVLVIYYDSDRPSGIPERFSGSNSGNTATLTISRVEAGDEADYYCQVWDSSSDHPVFGGGTKVTVL	4.29	no binding
ADI-19440 (antibody, V domains shown, full-length IgG) VH: EVQLVESGGGLVQPGGSLRLSCAASGFTFSSYSMNWVRQAPGKGLEWVSYISSSSSTIYYADSVKGRFTISRDNAKNSLYLQMNSLRAEDTAVYYCAREGYSGSYGYYFDYWGQGTLVTVSS VL: QSVLTQPPSVSGAPGQRVTISCTGSSSNIGAGYDVHWYQQLPGTAPKLLIYGNSNRPSGVPDRFSGSKSGTSASLAITGLQAEDEADYYCQSYDSSLSGSVFGTGTKLTVL	14.3	no binding
ADI-19457 (antibody, V domains shown, full-length IgG) VH: EVQLLESGGGLVKPGGSLRLSCAASGFTFSSYSMNWVRQAPGKGLEWVSSISSSSSYIYYADSVKGRFTISRDNAKNSLYLQMNSLRAEDTAVYYCARQGYCSGGSCYHIDYWGQGTLVTVSS VL: QSVVTQPPSVSGAPGQRVTISCTGSSSNIGAGYDVHWYQQLPGTAPKLLIYGNSNRPSGVPDRFSGSKSGTSASLAITGLQAEDEADYYCQSYDSSLSGWVFGGGTKLTVL	16.7	no binding
ADI-24815 (antibody, V domains shown, full-length IgG) VH: EVQLVESGGGLVKPGGSLRLSCAASGFTFSSYSMNWVRQAPGKGLEWVSSISSSSSYIYYADSVKGRFTISRDNAKNSLYLQMNSLRAEDTAVYYCAREGYSSSSGYYYMDVWGKGTTVTVSS VL: QSVLTQPPSVSGAPGQRVTISCTGSSSNIGAGYDVHWYQQLPGTAPKLLIYGNSNRPSGVPDRFSGSKSGTSASLAITGLQAEDEADYYCQSYDSSLSGSVFGTGTKVTVL	29.1	no binding
ADI-25557 (antibody, V domains shown, full-length IgG) VH: EVQLLESGGGLVKPGGSLRLSCAASGFTFSSYSMNWVRQAPGKGLEWVSSISSSSSYIYYADSVKGRFTISRDNAKNSLYLQMNSLRAEDTAVYYCARGYGSGSYLDYFDYWGQGTLVTVSS VL: QPGLTQPPSVSGAPGQRVTISCTGSSSNIGAGYDVHWYQQLPGTAPKLLIYGNSNRPSGVPDRFSGSKSGTSASLAITGLQAEDEADYYCQSYDSSLSGFYVFGTGTKLTVL	33.3	no binding
ADI-19449 (antibody, V domains shown, full-length IgG) VH: EVQLVESGGGLVKPGGSLRLSCAASGFTFSSYSMNWVRQAPGKGLEWVSSISSSSSYIYYADSVKGRFTISRDNAKNSLYLQMNSLRAEDTAVYYCARDSGSYLSYAFDIWGQGTMVTVSS VL: SYELTQPPSVSGAPGQRVTISCTGSSSNIGAGYDVHWYQQLPGTAPKLLIYGNSNRPSGVPDRFSGSKSGTSASLAITGLQAEDEADYYCQSYDSSLSGYVFGTGTKVTVL	26	no binding
ADI-25472 (antibody, V domains shown, full-length IgG) VH: EVQLVESGGGLVKPGGSLRLSCAASGFTFSSYSMNWVRQAPGKGLEWVSSISSSSSYIYYADSVKGRFTISRDNAKNSLYLQMNSLRAEDTAVYYCARDDSSSWYYFDYWGQGTLVTVSS VL: QSVLTQPPSVSGAPGQRVTISCTGSSSNIGAGYDVHWYQQLPGTAPKLLIYGNSNRPSGVPDRFSGSKSGTSASLAITGLQAEDEADYYCQSYDSSLSGYVFGTGTKVTVL	37.7	no binding
ADI-24800 (antibody, V domains shown, full-length IgG) VH: EVQLLESGGGLVKPGGSLRLSCAASGFTFSSYSMNWVRQAPGKGLEWVSSISSSSSYIYYADSVKGRFTISRDNAKNSLYLQMNSLRAEDTAVYYCARVRGGYSYGYGMDVWGQGTTVTVSS VL: QSVVTQPPSVSGAPGQRVTISCTGSSSNIGAGFDVHWYQQLPGTAPKLLIYGNSNRPSGVPDQFSGSKSGTSASLAITGLQAEDEADYYCQSYDSSLSGVVFGGGTKLTVL	51.4	no binding
ADI-19507 (antibody, V domains shown, full-length IgG) VH: EVQLVESGGGLVKPGGSLRLSCAASGFTFSSYSMNWVRQAPGKGLEWVSSISSSSSYIYYADSVKGRFTISRDNAKNSLYLQMNSLRAEDTAVYYCAREVLTGDYLGWFDPWGQGTLVTVSS VL: QSVVTQPPSVSGAPGQRVTISCTGSSSNIGAGYDVHWYQQLPGTAPKLLIYGNSNRPSGVPDRFSGSKSGTSASLAITGLQAEDEADYYCQSYDSSHWVFGGGTKLTVL	10.1	no binding
ADI-19465 (antibody, V domains shown, full-length IgG; also called Ab 170) VH: EVQLVESGGGLVKPGGSLRLSCAASGFTFSSYSMNWVRQAPGKGLEWVSSISSSSSYIYYADSVKGRFTISRDNAKNSLYLQMNSLRAEDTAVYYCAREGSSSWYYFDYWGQGTLVTVSS VL: QSVVTQPPSVSGAPGQRVTISCTGSSSNIGAGYDVHWYQQLPGTAPKLLIYGNSNRPSGVPDRFSGSKSGTSASLAITGLQAEDEADYYCQSYDSSLSGPWVFGGGTKLTVL	19.4	no binding
ADI-19430 (antibody, V domains shown, full-length IgG) VH: QVQLVQSGAEVKKPGSSVKVSCKASGGTFSSYTISWVRQAPGQGLEWMGRIIPILGIANYAQKFQGRVTITADKSTSTAYMELSSLRSEDTAVYYCARDGGPYYYDSSGYYRLDYWGQGTLVTVSS VL: DIRMTQSPLSLPVTLGQPASISCRSSQSLVYSDGNTYLNWFQQRPGQSPRRLIYKVSNRDSGVPDRFSGSGSGTDFTLKISRVEAEDVGVYYCMQGTHWTYTFGQGTKLEIK	16.8	no binding
ADI-24820 (antibody, V domains shown, full-length IgG) VH: QVQLVQSGAEVKKPGSSVKVSCKASGGTFSSYTISWVRQAPGQGLEWMGRIIPILGIANYAQKFQGRVTITADKSTSTAYMELSSLRSEDTAVYYCARDPPYLRAFDIWGQGTTVTVSS VL: not shown	38.5	no binding
ADI-25556 (antibody, V domains shown, full-length IgG; also called Ab 450) VH: QVQLVQSGGGLVKPGGSLRLSCAASGFTFSSYSMNWVRQAPGKGLEWVSSISSSSSYIYYADSVKGRFTISRDNAKNSLYLQMNSLRAEDTAVYYCARQRGGIAVAGTYFDLWGRGTLVTVSS VL: QSVLTQPPSVSGAPGQRVTISCTGSSSNIGAGYDVHWYQQLPGTAPKLLIYGNSNRPSGVPDRFSGSKSGTSASLAITGLQAEDEADYYCQSYDSTVVFGGGTKVTVL	42	no binding
ADI-19450 (antibody, V domains shown, full-length IgG; also called Ab 160) VH: EVQLLESGGGLVQPGGSLRLSCAASGFTFSSYWMHWVRQAPGKGLVWVSRINSDGSSTSYADSVKGRFTISRDNAKNTLYLQMNSLRAEDTAVYYCARAPISILRFLGGYFDYWGQGTLVTVSS VL: not shown	38.6	no binding
ADI-24840 (antibody, V domains shown, full-length IgG) VH: EVQLLESGGGLVKPGGSLRLSCAASGFTFSSYSMNWVRQAPGKGLEWVSSISSSSSYIYYADSVKGRFTISRDNAKNSLYLQMNSLRAEDTAVYYCARDQVYSYGYYFDYWGQGTLVTVSS VL: QSVLAQPPSVSGAPGQRVTISCTGSSSNIGAGYDVHWYQQLPGTAPKLLIYGNSNRPSGVPDRFSGSKSGTSASLAITGLQAEDEADYYCQSYDSSLSGSHVVFGGGTKLTVL	7.8	no binding
ADI-19454 (antibody, V domains shown, full-length IgG) VH: EVQLLESGGGLVKPGGSLRLSCAASGFTFSSYSMNWVRQAPGKGLEWVSSISSSSSYIYYADSVKGRFTISRDNAKNSLYLQMNSLRAEDTAVYYCARGYCSGGSCYSHYFQHWGQGTLVTVSS VL: QSVLTQPASVSGSPGQSITISCTGTSSDVGGYNYVSWYQQHPGKAPKLMIYDVSNRPSGVSNRFSGSKSGNTASLTISGLQAEDEADYYCSSYTSSSTVVFGGGTKVTVL	15.7	no binding
ADI-24826 (antibody, V domains shown, full-length IgG; also called Ab 388) VH: EVQLVESGGGLVKPGGSLRLSCAASGFTFSSYSMNWVRQAPGKGLEWVSSISSSSSYIYYADSVKGRFTISRDNAKNSLYLQMNSLRAEDTAVYYCARDRGYGSGALDYWGQGTLVTVSS VL: QPVLTQPASVSGSPGQSITISCTGTSSDVGGYNYVSWYQQHPGKAPKLMIYDVSNRPSGVSNRFSGSKSGNTASLTISGLQAEDEADYYCSSYTSSSTVVFGGGTKLTVL	9.03	no binding
ADI-24836 (antibody, V domains shown, full-length IgG) VH: EVQLLESGGGLVQPGRSLRLSCAASGFTFDDYAMHWVRQAPGKGLEWVSGISWNSGSIGYADSVKGRFTISRDNAKNSLYLQMNSLRAEDTALYYCAKDLRGGTYYYYGMDVWGQGTTVTVSS VL: not shown	3.44	no binding
ADI-24833 (antibody, V domains shown, full-length IgG) VH: QVQLVESGGGLVKPGGSLRLSCAASGFTFSSYSMNWVRQAPGKGLEWVSSISSSSSYIYYADSVKGRFTISRDNAKNSLYLQMNSLRAEDTAVYYCARALTYYYDSSGHGADYWGQGTLVTVSS VL: QSVVTQPPSVSGAPGQRVTISCTGSSSNIGAGYDVHWYQQLPGTAPKLLIYGNSNRPSGVPDRFSGSKSGTSASLAITGLQAEDEADYYCQSYDSSLSVVFGGGTKLTVL	11.4	no binding
ADI-24847 (antibody, V domains shown, full-length IgG) VH: EVQLVESGGGLVKPGGSLRLSCAASGFTFSSYSMNWVRQAPGKGLEWVSSISSSSNYIYYADSVKGRFTISRDNAKNSLYLQMNSLRAEDTAVYYCARDRIAAYTFDYWGQGTLVTVSS VL: QSVVTQPPSVSGAPGQRVTISCTGSSSNIGAGYDVHWYQQLPGTAPKLLIYGNSNRPSGVPDRFSGSKSGTSASLAITGLQAEDEADYYCQSYDSSLPYVFGTGTKVTVL	40	no binding
ADI-19460 (antibody, V domains shown, full-length IgG) VH: QVQLQQWGAGLLKPSETLSLTCAVYGGSFSGYYWSWIRQPPGKGLEWIGEINHSGSTNYNPSLKSRVTISVDTSKNQFSLKLSSVTAADTAVYYCARGGITAYYYYYGMDVWGQGTTVTVSS VL: not shown	6.01	no binding
